Target: SLA-1*0401/β2M (HEK293トランスフェクタント細胞表面) (pig) (UniProt Q07717)
Experiment: flow cytometry of hybridoma supernatant on SLA-1*0401/β2M HEK293 transfectants

- 平均蛍光強度(MFI): 3000
B1: モノクローナル抗体X2F6 (antibody, mouse IgG2a, kappa, V domains shown)
VH: QVQLQQSGAELVKPGASVKLSCKASGYTFTSYDINWVRQRPEQGLEWIGWIYPGDGSTKYNEKFKGKATLTTDKSSSTAYMQLSRLTSEDSAVYFCASPYYYGSSPFAYWGQGTLVTVSA
VL: DIQMTQSPASLSASVGETVTITCRASENIYSYLAWYQQKQGKSPQLLVYNAKTLAEGVPSRFSGSGSGTQFSLKINSLQPEDFGSYYCQHHYGTPRTFGGGTKLEIKR

— patent JP2016135753A
